From the supplement of paper PMC9170038

What was measured:
[1] = system: MS2 coat protein; experiment: apparent KD of MS2 coat protein, switch ON state; designed switch direction (-1 OFF switch, 1 ON switch): 1; higher = weaker reporter binding; settings: FMN input: 0 or 200 uM; Eterna round: R93 (includes R88 designs)
How it was run: (§1)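 Designed RNA switches were transcribed on-chip from Illumina sequencing clusters. They were then titrated with SNAP-549-labelled MS2 coat protein (twofold steps, 0.7 or 1.5 nM to 3 µM; 0.8–1.5 h to 10–20 min per step) in 100 mM Tris-HCl pH 7.5, 80 mM KCl, 4 mM MgCl2, without or with constant ligand. Apparent KD is the per-design median of normalised cluster binding-curve fits.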

[2] = system: MS2 coat protein; experiment: apparent KD of MS2 coat protein, switch OFF state (with FMN for OFF switches, without FMN for ON switches); designed switch direction (-1 OFF switch, 1 ON switch): 1; higher = weaker reporter binding; settings: FMN input: 0 or 200 uM; Eterna round: R93 (includes R88 designs)
How it was run: as §1

| Sequence | apparent KD of MS2 coat protein [1] | apparent KD of MS2 coat protein [2] |
| --- | --- | --- |
| GAAAAACAUGAGGAUCACCCAUGUGGAAAUAUGGAAGGAUAUACAAAGACGGAAGUCAAAGUAGAAGGUCUAAAAG [Mat - Same State 1 - Eli mod - D19] | 23.6 nM | 29.4 nM |
| GAAAAACAUGAGGAUCACCCAUGUGUAAACACGGGAGGAUAUACGAAGACGUAAGUCAAAGUAGAAGGCCUAAAAG [Garnet 40] | 18.9 nM | 60.3 nM |
| GAAAUAAAAACACAGGAUAUCCAAAAGAAAACAUGAGGAUCACCCAUGUAAAGAAAAUAAAAAUGGGAGAAGGGUGAAAAUAAAA [Mat - Same State 2 - JL mod - D26] | 15.8 nM | 41.3 nM |
| GAAGACAUAGUUCAGGAUAUAGGAAUAGUCACAUGAGGAUCACCCAUGUGCAUUUAUAUGCGCACUUAGAAGGGAGGUAGUUAUC [SameState2 Malc#23] | 36 nM | 25 nM |
| GAAGACGUAGGAUAGGAUAUGUGAAUAAUUACAUGAGGAUCACCCAUGUCCAUUUAUAUGGGAACAUAGAAGGGUUUUCGUUAUC [SameState2 Malc#9] | 341 nM | 281 nM |
| GACUAACAUGAGGAUCACCCAUGUAUUCAAACAUGAGGAUAUAUAACACAUCAUCGACGGAUAGAAGGCAUAGAUA [JR_SS001_Sub1207] | 81.1 nM | 71.7 nM |
| GAGGACCUAGGAUAGGAUAUGUGAAUAAUUACAUGAGGAUCACCCAUGUCCAUUUAUAUGGGAACAUAGAAGGGUUUUGGUUAUC [SameState2 Malc#39] | 232 nM | 180 nM |
| GAUCCAACUAGUCAGGAUAUCAGGCGUAAGACAUGAGGAUCACCCAUGUCCUAAGAACAAGUAACUGAGAAGGGACAGGGCGACC [JR_SS002_Sub412] | 70.5 nM | 74.3 nM |
| GCAAAACAUGAGGAUCACCCAUGUGAAAAGAAUGUAGGAUAUGGGCUCAUAAAUAGCAGCCCAGAAGGGCGAAGAA [Onmace] | 29.6 nM | 26.2 nM |
| GCCUAACAUGAGGAUCACCCAUGUAGUGGGUUGUUAGGAUAUGGGCCGUGUAACACUGCACCAGAAGGAAUAGAAG [Atinanqu] | 382 nM | 532 nM |
| GCGGUGUAGGUACAGGAUAUGUUGCUCGUAACAUGAGGAUCACCCAUGUACCUAUGAGAUUAAAUGCAGAAGGGUGCACACCACG [Zaalaes] | 21.5 nM | 2.41 nM |
| GGAAGACAUGAGGAUCACCCAUGUGGGAAUAUGGGAGGAUAUACAAAGACGAGAGUCAGAGUAGAAGGCCUAGGAC [salish99-ss1-102] | 32.8 nM | 105 nM |
| GGAAGACAUGAGGAUCACCCAUGUGGGAAUAUGGGAGGAUAUACAAAGACGAGAGUCAGAGUAGAAGGCCUAGGCC [salish99-ss1-103(!)] | 54.3 nM | 126 nM |
| GGAAGACAUGAGGAUCACCCAUGUGGGAUUAUGGGAGGAUAUACAAAGACGAGAGUCAGAGUAGAAGGCCUAGGAC [salish99-ss1-123(!)] | 31.1 nM | 61.4 nM |
| GGAAGGAAGAGAGAGGAUAUCCAAAGGAAAACAUGAGGAUCACCCAUGUAAAAGGUAGGAAAUUGGGAGAAGGCUCAAAAGAGAG [salish99-ss2-036] | 18.6 nM | 14 nM |
| GGAGCCGACACUGAGGAUAUUCAUAUUAAAACAUGAGGAUCACCCAUGUAGGCCAGAAGGCCUUGGGAGAAGGCAGGCCGGCUCG [Inxebi] | 19.3 nM | 256 nM |
| GGAGCCGGUACUGAGGAUAUUCAUAUUAAAACAUGAGGAUCACCCAUGUAGGCCAGAAGGCCUUGGGAGAAGGCAGACCAGCUCG [Atgexeedri] | 19.1 nM | 273 nM |
| GGCUGCGAUGUGAAGGAUAUCCGCGACUGGACAUGAGGAUCACCCAUGUAUGCUUGGAACAUGCCGGAGAAGGUCACGAAUGAUU [JR_SS002_Sub1216] | 18.7 nM | 30.2 nM |
| GGGAGACAUGAGGAUCACCCAUGUGAGAAGAGGCGAGGAUAUCGAAAAAAAAAAAAAAAACGAGAAGGCGCGAGAG [salish99-SS1-005] | 63.7 nM | 28.6 nM |
| GGGAGGAAGAGAGAGGAUAUCCAAAGGAAAACAUGAGGAUCACCCAUGUAAAAGGUAGGAAAUUGGGAGAAGGCUCAAGAGACGG [salish99-ss2-053] | 26.7 nM | 34.2 nM |
| GGGCAAGAGAGAGAGGAUAUCCAAAGGAAAACAUGAGGAUCACCCAUGUAGAAGGUAGGAAAUUGGGAGAAGGCUCAAGAGAGAG [salish99-ss2-137] | 8.51 nM | 12.6 nM |
| GGGUAAGAGAGAGAGGAUAUCCAAAGGAAAACAUGAGGAUCACCCAUGUAGAAGGUAGGAAAUUGGGAGAAGGCUCAAGAGAGAG [salish99-ss2-136] | 29.8 nM | 29.7 nM |
